Data reported in article PMC10755785 (The Journal of Biological Chemistry, 2023).

What was measured:
[1] = target: σ^s (RpoS), His-tagged (Escherichia coli) (UniProt P13445); test: pull-down
[2] = target: σ^s (RpoS), His-tagged (Escherichia coli) (UniProt P13445); test: SEC
σ^s (RpoS), His-tagged = σ^s (RpoS), His-tagged (Escherichia coli, UniProt P13445 1-330); test: pull-down
σ^s (RpoS), His-tagged, sequence (P13445 whole entry): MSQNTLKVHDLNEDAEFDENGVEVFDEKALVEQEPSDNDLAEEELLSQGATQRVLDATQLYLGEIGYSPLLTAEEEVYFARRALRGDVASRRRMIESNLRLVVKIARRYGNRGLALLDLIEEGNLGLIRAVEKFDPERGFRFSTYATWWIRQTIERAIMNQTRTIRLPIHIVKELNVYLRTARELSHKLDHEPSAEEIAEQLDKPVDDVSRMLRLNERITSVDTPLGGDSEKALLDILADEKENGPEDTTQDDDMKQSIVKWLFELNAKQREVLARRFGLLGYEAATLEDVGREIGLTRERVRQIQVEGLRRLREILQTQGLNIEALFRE

σ^s (RpoS), His-tagged (Escherichia coli), sequence (P13445 whole entry): as above

Molecule: RssB (wild type, full length) (from UniProt P0AEV1 1-337) (natural protein)
- fold increase in pull-down efficiency with beryllofluoride against without [1]: 5 fold

Molecule: RssB∼P (RssB phosphorylated with acetyl phosphate) (from UniProt P0AEV1 1-337) (natural protein)
- stoichiometry N [2]: 1 σ^s:RssB

B1: RssB^F129A;S131A (natural protein, Escherichia coli)
chain: MTQPLVGKQILIVEDEQVFRSLLDSWFSSLGATTVLAADGVDALELLGGFTPDLMICDIAMPRMNGLKLLEHIRNRGDQTPVLVISATENMADIAKALRLGVEDVLLKPVKDLNRLREMVFACLYPSMANARVEEEERLFRDWDAMVDNPAAAAKLLQELQPPVQQVISHCRVNYRQLVAADKPGLVLDIAALSENDLAFYCLDVTRAGHNGVLAALLLRALFNGLLQEQLAHQNQRLPELGALLKQVNHLLRQANLPGQFPLLVGYYHRELKNLILVSAGLNATLNTGEHQVQISNGVPLGTLGNAYLNQLSQRCDAWQCQIWGTGGRLRLMLSAE
- percent of WT binding (σ^s (RpoS), His-tagged): ~50 % of WT
